Biological target: T1, human complement component C1q (human, UniProt P02745 23-245; P02746 28-253; P02747 29-245)
T1 construct: complement C1q subcomponent subunit A, human; complement C1q subcomponent subunit B, human; complement C1q subcomponent subunit C, human; Detected with fluorescent anti-C1q; also called complement C1q; source: bought: Sigma (C1740); copies: + +
Test: glycan array; AEAB-labelled D. immitis neutral N-glycan pool printed on NHS-modified glass slides; incubated first with human CRP (5 µg/ml), then serially with C1q and fluorescent anti-C1q; fluorescence read-out, mean of 10 spots
Conditions: both partners purified

T1 sequence (P02745 23-245, chain 1 of 3): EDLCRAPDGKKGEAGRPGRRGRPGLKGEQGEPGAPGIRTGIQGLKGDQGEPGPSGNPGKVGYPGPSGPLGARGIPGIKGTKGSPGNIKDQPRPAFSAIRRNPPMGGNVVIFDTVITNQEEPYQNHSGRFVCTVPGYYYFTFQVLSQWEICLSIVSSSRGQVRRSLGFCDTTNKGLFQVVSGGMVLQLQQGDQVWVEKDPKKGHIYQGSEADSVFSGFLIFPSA
T1 sequence (P02746 28-253, chain 2 of 3): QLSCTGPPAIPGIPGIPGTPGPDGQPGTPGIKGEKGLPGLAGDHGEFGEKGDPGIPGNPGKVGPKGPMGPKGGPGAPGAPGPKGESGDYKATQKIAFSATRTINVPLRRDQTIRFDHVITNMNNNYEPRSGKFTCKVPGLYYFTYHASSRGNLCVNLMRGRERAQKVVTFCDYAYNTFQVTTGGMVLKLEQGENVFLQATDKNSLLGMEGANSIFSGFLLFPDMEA
T1 sequence (P02747 29-245, chain 3 of 3): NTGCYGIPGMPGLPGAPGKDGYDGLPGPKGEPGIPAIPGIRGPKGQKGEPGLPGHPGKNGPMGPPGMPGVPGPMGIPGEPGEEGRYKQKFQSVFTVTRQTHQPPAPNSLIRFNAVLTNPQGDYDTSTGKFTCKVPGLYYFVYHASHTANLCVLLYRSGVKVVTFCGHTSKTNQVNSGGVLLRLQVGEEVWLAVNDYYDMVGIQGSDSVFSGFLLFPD

B1: natural human C-reactive protein (natural protein, UniProt P02741 19-224, looked up)
chain: QTDMSRKAFVFPKESDTSYVSLKAPLTKPLKAFTVCLHFYTELSSTRGYSIFSYATKRQDNEILIFWSKDIGYSFTVGGSEILFEVPEVTVAPVHICTSWESASGIVEFWVDGKPRVRKSLKKGYTVGAEASIILGQEQDSFGGNFEGSQSLVGDIGNVNMWDFVLSPDEINTIYLGGPFSPNVLNWRALKYEVQGEVFTKPQLWP
notes: C-reactive protein, human, natural; called pentameric in the discussion; also called CRP; human pentraxin C-reactive protein; source: bought: MPBio (215231505)
binding result: binds
